Measurements reported in PMC2645002.

Target: miniCD4 CD4M48, biotinylated at Lys11
Test: pull-down

Substance “HIV-1 envelope glycoprotein gp120SF162 (monomer) (natural protein)” has a % of recovery of 55.8%.
